Assay results: patent US20180037644A1 (Pfizer, published 2018)
Where two headings read alike, the source gives them in different places. One block for each binder: values may come before it.

Columns and labels:
[1] = target: T1, human IL-33 (mm2) (human, UniProt O95760 112-270); assay: cell-based or functional assay
T1 chain: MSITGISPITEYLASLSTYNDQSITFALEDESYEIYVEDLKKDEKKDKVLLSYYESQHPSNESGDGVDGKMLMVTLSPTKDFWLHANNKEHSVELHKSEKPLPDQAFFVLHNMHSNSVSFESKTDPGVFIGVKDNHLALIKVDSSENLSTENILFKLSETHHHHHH

[2] = target: T2, cynomolgus monkey IL-33 (cys mut) (cynomolgus monkey); assay: cell-based or functional assay
T2 chain: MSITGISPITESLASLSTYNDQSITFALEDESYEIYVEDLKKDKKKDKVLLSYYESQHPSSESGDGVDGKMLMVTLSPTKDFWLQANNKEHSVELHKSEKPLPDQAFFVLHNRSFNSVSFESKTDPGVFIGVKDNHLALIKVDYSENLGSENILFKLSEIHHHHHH

[3] = target: T3, human IL-33 WT (R&D) (human, UniProt O95760 112-270); assay: cell-based or functional assay
T3 sequence: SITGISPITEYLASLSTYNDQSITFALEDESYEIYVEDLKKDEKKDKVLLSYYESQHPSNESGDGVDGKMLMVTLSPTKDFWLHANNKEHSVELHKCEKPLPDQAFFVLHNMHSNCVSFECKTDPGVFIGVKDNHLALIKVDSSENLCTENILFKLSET

[4] = target: T4, wild-type cynomolgus monkey IL-33 (cynomolgus monkey); assay: cell-based or functional assay
T4 chain: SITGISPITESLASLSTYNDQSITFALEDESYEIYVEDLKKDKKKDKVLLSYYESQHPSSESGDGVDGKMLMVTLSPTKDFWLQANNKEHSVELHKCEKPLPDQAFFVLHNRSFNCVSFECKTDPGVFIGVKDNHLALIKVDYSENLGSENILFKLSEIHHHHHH

[5] = target: T1, human IL-33 (mm2); assay: cell-based or functional assay
[6] = target: T2, cynomolgus monkey IL-33 (cys mut); assay: cell-based or functional assay
[7] = target: T3, human IL-33 WT (R&D); assay: cell-based or functional assay; remark: listed apart in the source
[8] = target: T4, wild-type cynomolgus monkey IL-33; assay: cell-based or functional assay
[9] = target: T1, human IL-33 (mm2); assay: cell-based or functional assay
[10] = target: T3, human IL-33 WT (R&D); assay: cell-based or functional assay; remark: listed apart in the source
[11] = target: T1, human IL-33 (mm2); assay: cell-based or functional assay
[12] = target: T2, cynomolgus monkey IL-33 (cys mut); assay: cell-based or functional assay
[13] = target: T3, human IL-33 WT (R&D); assay: cell-based or functional assay; remark: listed apart in the source
[14] = target: T1, human IL-33 (mm2); assay: cell-based or functional assay
[15] = target: T3, human IL-33 WT (R&D); assay: cell-based or functional assay; remark: listed apart in the source
[16] = target: T1, human IL-33 (mm2); assay: cell-based or functional assay
[17] = target: T3, human IL-33 WT (R&D); assay: Octet, captured on anti-Fc tip; IL-33 premixed with IL33-158LS (competitor)

- IC50, IFN-γ production in human PBMC [1]: 0.0014 nM
- Cynomolgus monkey:human IC50 ratio: cysteine mutant IL-33 [2]: 1.8
- IC50, HEK293 ST2 NFkB [2]: 0.034 nM
- IC50, HEK293 ST2 NFkB (DTT-pretreated IL-33) [3]: 0.331 nM
- Cynomolgus monkey:human IC50 ratio: wild-type IL-33 [4]: 4.2
- IC50, HEK293 ST2 NFkB (DTT-pretreated IL-33) [4]: 1.39 nM
- IC50, HEK293 ST2 NFkB [5]: 0.019 nM
- Cynomolgus monkey:human IC50 ratio: cysteine mutant IL-33 [6]: 1.4
- IC50, HEK293 ST2 NFkB [6]: 0.013 nM
- IC50, HEK293 ST2 NFkB [7]: 0.061 nM
- Cynomolgus monkey:human IC50 ratio: wild-type IL-33 [8]: 9.2
- IC50, HEK293 ST2 NFkB [8]: 0.562 nM
- IC50, HEK293 ST2 NFkB [9]: 0.009 nM
- IC50, human whole blood [10]: 0.868 nM
- IC50, human whole blood [11]: 0.021 nM
- IC50, HEK293 ST2 NFkB [12]: 0.198 nM
- IC50, HEK293 ST2 NFkB [13]: 0.983 nM
- IC50, HEK293 ST2 NFkB [14]: 0.162 nM
- IC50, HEK293 ST2 NFkB [15]: 2.66 nM
- IC50, HEK293 ST2 NFkB [16]: 0.079 nM
B1: IL33-158LS (antibody, human IgG1, kappa)
heavy: EVQLVESGGGLVQPGGSLRLSCAASGFTFSSYWMYWVRQAPGKGLEWVAAITPNAGEDYYPESVKGRFTISRDNAKNSLYLQMNSLRAEDTAVYYCARGHYYYTSYSLGYWGQGTLVTVSSASTKGPSVFPLAPSSKSTSGGTAALGCLVKDYFPEPVTVSWNSGALTSGVHTFPAVLQSSGLYSLSSVVTVPSSSLGTQTYICNVNHKPSNTKVDKKVEPKSCDKTHTCPPCPAPEAAGAPSVFLFPPKPKDTLMISRTPEVTCVVVDVSHEDPEVKFNWYVDGVEVHNAKTKPREEQYNSTYRVVSVLTVLHQDWLNGKEYKCKVSNKALPAPIEKTISKAKGQPREPQVYTLPPSREEMTKNQVSLTCLVKGFYPSDIAVEWESNGQPENNYKTTPPVLDSDGSFFLYSKLTVDKSRWQQGNVFSCSVLHEALHSHYTQKSLSLSPG
light: DIQMTQSPSSLSASVGDRVTITCKASQNINKHLDWYQQKPGKAPKLLIYFTNNLQTGVPSRFSGSGSGTDFTLTISSLQPEDFATYYCFQYNQGWTFGGGTKVEIKRTVAAPSVFIFPPSDEQLKSGTASVVCLLNNFYPREAKVQWKVDNALQSGNSQESVTEQDSKDSTYSLSSTLTLSKADYEKHKVYACEVTHQGLSSPVTKSFNRGEC

- binding result [17]: binds
B2: IL33-271 (antibody, human IgG1, kappa, V domains shown)
VH: QVLLVQSGAEVKKPGATVKVSCKASGSTFTGYYMHWVRQAPGQGLEWMGWINPNNGGTNYAQKFQGRVTMTRDTSISTAYMELSRLRSDDTAVYYCARELRYNWKSWGQGTLVTVSS
VL: EIVLTQSPGTLSLSPGERVTLSCRASQSVGRPYLAWYQQIPGQAPRLLIYGASSRATDIPDRFSGNGSGTDFTLTISRLEPEDFAVYYCQQYDNSPYTFGQGTRLEIKR
notes: also called control non-neutralizing anti-IL-33 antibody
